Assay: label from the status in PepcDB records

Sequence	protein production
MRMIIAFLLGCLGMFLTTGCAFVSVPLMSAPQPLAEQVLEGEGTKKILIVDISGAIGDQAKGGGLLSRGTPSTVSLVREVLLKAERDPKVAGLILRINSPGGTVTASDIIRHDLLAFKERRNLPVSACIMGIGASGGYYVATAADGITAHPTALTGSIGVLLMTFNVEGLLGKVGVEEKTIKSGGKKDLLSPFRRATPEEERLVQGVIDQFHGRFVDVVQARPGNRLSRHDLLTLADGRIFSAADALAAGLIDRIGYLDDVIASLRDRIGDPDARVVTYFRPGSYQGSIYAESAAEPSMADLLGGFDMTGGGQFMYLWRPW	failed
MLPTKINLIRLRRELAMLRRIRRVMEEKREVILHYITSMAAEYVRYQREVYSELERIYQNYYLGVAAEGIERARAFTAPAEGSLEVDVSTRTLFAVKTPVFSLREETVPPLPLPAGSDPKLVQSILDMRSILDKLLKLAEYEETLQRLISELKDTQRLINALDYVILPSYQNAIKFIKLVLEDRMREDFVRLKIIKRKMEAKTQLEHHHHHH	not failed
MWIQVRTIDGSKTCTIEDVSRKATIEELRERVWALFDVRPECQRLFYRGKQLENGYTLFDYDVGLNDIIQLLVRPD	not failed
MKDSVDCPSILPTDRTSVLSETSTLVGSSSHVYSRHAPMNSYHNSMNSNIYHSPKASSPLVSYKTSSPVLLKRATAPVLPSFKPKEQRYNKPQGCSLITAVELGKIIETLPDEKVLLLDVRPFTEHAKSIITNSIHVCLPSTLLRRKNFTFSKLLDNLTPSEQSVLKSKLAIDNLRIIIYDSTANQTESSVSLPCYGIASKLIEFDTNVKKTVSILMCGFPQFKILFPDHINTNTFNSDCISSAEPKSPKTNLMNSLHNTAPHMTATTPLSSPQMNLKLKVPDDSRSDHSNFSSSPSPRNVLSDSPMSSSSPISALFKFQLPAPQTNINQMFKFSQNEEIMGLETYLSAVNIKEEHERWYNNDSAKKSLQNFQFPKNQNSLEKDTNKDKLGFQIRYENLSKNYEKEVIDSVIPEWFQHLMSIPKIELVSQFQKLDFLEKRRLNHSVSFRKKENSFILEKPSSYPEQLTSTSSSTIMPPKFPDVNKVQKRSHSQPIFTQYSKYKSMLSLESDSDSESDDVIISSGVELGAKNRYKDIFPYEHSRVILKKGLQSSKGIKHSHSTSDGGILDNYINANYLSLPRFSVEQNSSFQTTTTTTRRVRYIATQAPMPSTVHDFYTCILNNGVPLVLSLTNDFENGIEKCYRYWQEGNYNGIHVKLLEKKILKMPSTTSMRKNTMGTQNSSLYSAGVQGNSSNYSTDNDNDNDNNNNNNNNSNIPVTAAACDDDDDDDDDAILIRQILLTYHDQEKPYELLQIQVKNWPDLGTLLNPISILQAINVKNHIIDTLFARNYYQNDQLPTILVHCSAGCGRTGTLCTIDSILSNFEMFEMLQKEFVKLKYPAKLFDPISWTINIFRKERISMVQNINQFIFIYDCLLFYFRLRLDDITERTDGDGSNKDNISLSALIEQIEKLEILQTFVDDKLKELPQ	failed
MKKYNVDWNYWVVRFLFVMALIVGYLLITNYQHFVHSVSGLLGILSPFITGFVIAYLLSGSQKKIEGLLERVPLPVVKKAKHGLSVLLLYLIILFIFVLTLNYIVPLLISNLVDLANSLPTFYDHMVQFVMSLEDKGILKTAAIEKYLNSVLKDLSPERFLNQWTQALFSLGTLTKNVSSFFLNAFLTLIISIYALVFKQSILTFVEKAAHKLLSEKVYKQTQTWLNTTNKIFYKFISCQFLDACIIGVSSTILLSILNVKFAVTLGILLGICNMIPYFGSIFASIVAGVITLFTGGVTQAITVLLVLLILQQIDGNIIGPRIMGDALNVNPILIIVSITIGGAYFGVLGMFLAVPVAAIIKIIVSEWLNESKENDKIVDSIES	failed
MSAYEAVRIRLDPTPRQTRLLESHAGGARFAYNLMLAHVRRQISLGEKPDWTLYAMRRWWNEWKDEIAPWWRENSKEAYGSAFEWLSQALRNWSDSRKGRRAGRRVGWPKYKSKRSSVPRFAYTTGSFGLIEDDPKALKLPRIGRVHCMENATERVHGRRIVRMTVSRHAGFWYAALTVERPTESVPAKNRKQKNRNRQVGVDLGVRTLATLSDGTTFPNPRNYVRTQRKLRHAQQSLSRRDRGMSHGCGSKRYNRALERVRRIHARIAAQRADNIGKLTTWLADNYSDISIEDLNVQGMSHNRRLAKHVLDADFREFRRQLEYKTARAGTRLHVIDRWYPSSKTCSNCGTVKAKLSLSERVYHCGKCGLVIDRDVNAAINIQVAGSAPETLNARGGSVRQTRLECGTMRHPAKREPSGGDSRVRLGAGLGNEAMQMTSL	failed
MNLMRFLRRPISLRQRLILTIGAILLVFELISVFWLWHESTEQIQLFEQALRDNRNNDRHIMREIREAVASLIVPGVFMVSLTLFICYQAVRRITRPLAELQKELEARTADNLTPIAIHSATLEIEAVVSALNDLVSRLTSTLDNERLFTADVAHELRTPLAGVRLHLELLAKTHHIDVAPLVARLDQMMESVSQLLQLARAGQSFSSGNYQHVKLLEDVILPSYDELSTMLDQRQQTLLLPESAADITVQGDATLLRMLLRNLVENAHRYSPQGSNIMIKLQEDGGAVMAVEDEGPGIDESKCGELSKAFVRMDSRYGGIGLGLSIVSRITQLHHGQFFLQNRQETSGTRAWVRLKKDQNVANQI	failed
MFHAAFMEERVFSDRGSMRNACSSIEYDGCRQGQSGPLLEEKEVKRKLFGALALVAMLAAPALAEAATRGFATANVNMRSGPSTAYPAVVVIPVGAPLTVHGCLSDTPWCDVSFVNGRGWVAGRYIQTTFRQNRVYVEPRYYRDLGVPVITFEAGRYWDRYYRDRDFYRERDRWRRPPPSGGYWNAPPPSAGWDRPRPRDDWRDGRRDDGRRDEWRDPRQGGPNDGRWERRYGDWNQGDRNQDRPRRDDDRRRWEDENRDRNRDRDSNRDGNRDRPQNQYDGQRGQLEGQPRPPAPAPDAPLQGCIIGSPGCAQRLEHHHHHH	not failed
MIDFNVDSARCTRCGQCVADCPSRIIVMATGEYPSIAPGKEFSCLRCEHCLAVCPEAAISILGFSPDGSTPLKGNLPETDQLETLIAGRRSVRRYCPENLSPELIDKLITVASCAPTGVNARKVRFTVLDDREKTAHFRDEVMERLVRLLEEEALPESKAYYARFVKVWQKHKIDLVFRDAPHLLIATAPKSLSTPRQDCVIALTTFELYAQACGIGTLWNGIATWAIEEMLPEMRQRLGIPDDHAFGYAMLFGKPAVRYARTVQHHPPEIYRVPLEHHHHHH	not failed
MNLSKFPVYVQAAILALVLALVGYLVAQALQFSLKAEVIFAVGLAIGGFVVPLFLNRAPAGVAELASSQETCTLYVGNLPYRANEIAVRELFAEQGQVISVRLMKDKATGKRRGFGFVEMPAADAAKAIAALNDKEYQQRTLKVREANDKRDKDEREGSEVDA	failed
GSAHSDEQSSGTLSSPGQSDILLTAAQGTVRKAGALAVKNFLVHKKNKKVESATRRKWKHYWVSLKGCTLFFYESDGRSGIDHNSIPKHAVWVENSIVQAVPEHPKKDFVFCLSNSLGDAFLFQTTSQTELENWITAIHSACATAVAR	failed
MATRGSRSEKVKRIFQQFDGNHDGGLNREEMAALVVAVNPRVKFSDEQINAILDEVFRTYAEFIDPNKGLTYDGLLRTYDDGAGDVDRDFDALGLELNADETTIKGSEAASSSSITDERAVEAQKKQRTAAWAVSPNHGIVFDETWKLVDDLEILVKRLKSKQEKDGKLKADNNNNNVDAFSDAGWSRELGPSSEISEKRIYWEESSHDYGVFVKELGVLRSKADGARSREEAFDGHMAIGRVLYEHQLFKEALVSFKRACELQPTDVRPHFKAGNCLYVLGKCKESKDEFLLALEAAESGGNQWAYLLPQIYVNLGIALEGEGMVLSACEYYREAAILCPTHFRALKLLGSALFGVGEYRAAVKALEEAIYLKPDYADAHCDLASSLHSMGEDERAIEVFQRAIDLKPGHVDALYNLGGLYMDLGRFQRASEMYTRVLTVWPNHWRAQLNKAVSLLGAGETEEAKRALKEALKLTNRVELHDAISHLKHLQKKKGKNNGNGNGGEGPFIVVEPSKFKTVGEKTTLRPDLATALQIRAFQRVTRLGKCDVEAVRKEMRDNDVPVSYSGSGGPTKSIRKPNLEEILRRLLSSLKPDTFQGAIKAINEKILALLDDSGSGRVDMGMFYAVIAPLCGGHSDKRKRVAFDALLWRPVNEGSSQITKTDAVKYIKLLRAIYIPSHGMSEMLEVHGEEEAESSVTVTFNQFLAMFDDPDWGFGIMSTILKLEANDRNRHGNQVCSVCRYPVIGSRFKEVKARFSLCNQCYGEGKVPPSFKQEEYKFREYESEAEAMKAKCVCFSMQSHKKAIAT	failed

From a protein production outcome set (Wang et al. 2014)
